Data set [1] can be described thus: Thermal stability: residual activity after incubation at 60° C. for one hour. The class given is biochemical. Particulars: crude recombinant enzyme; after incubation at 60° C. for 1 hour. The method, then: Thermal stability of the enzyme was investigated by measuring the activity of the enzyme after incubation at 60° C. for one hour and finding its relative activity supposing that the activity at 60° C. under the reaction conditions (10 minutes) used for determining the optimum temperature in the above 2 shown in Table 2 was 100. As heat treatment conditions, the crude enzyme solution, a buffer (50 mM tris-HCl, pH 7.5), and 2 mM MgCl2 were used to give a total amount of 200 p1 and after retaining at 60° C. for one hour, the reaction mixture was cooled for 10 minutes in ice water. The residual enzyme activity was then measured by the conventional method.
The activity of each of the present enzyme (crude recombinant enzyme) and the crude enzyme of the control enzyme after incubation at 60° C. for 1 hour was measured and a relative activity of it was determined supposing that the activity at 60° C. under the reaction conditions (10 minutes) for determining the optimum temperature in the above 2 shown in Table 2 is 100. The relative activity was used as a heat resistance index of the enzyme. As heat treatment conditions, the crude enzyme solution, a buffer (50 mM tris-HCl, pH 7.5), and 2 mM MgCl2 were used to give a total amount of 200 p1 and after retaining at 60° C. for one hour, the reaction mixture was cooled for 10 minutes in ice water. The residual enzyme activity was measured by the conventional method.

Data set [2] in a line: Ketose 3-epimerase activity ratio (T70/T50) at reaction temperature of 70° C. to 50° C. The settings on record: crude recombinant enzyme; ratio of activity at 70° C. to activity at 50° C., 10 min reaction. In kind it is biochemical. The method, then: An enzyme having higher heat resistance than an amino acid substitution-free wild type enzyme can be obtained by introducing mutation into the gene of the ketose 3-epimerase of the present invention and substituting the corresponding amino acid residue with another amino acid residue by a site-directed mutagenesis operation to prepare various amino acid-substituted mutants. The heat resistance is evaluated by two indices, that is, a ketose 3-epimerase activity ratio (T70/T50) at the reaction temperatures of 70° C. to 50° C. and a residual activity after incubation at 60° C. for one hour.
Heat resistance of the present enzyme (crude recombinant enzyme) and the crude enzyme of the control enzyme was investigated by measuring an activity at 70° C. and an activity at 50° C. under the reaction conditions (10 minutes) used for determining the optimum temperature in the above 2 shown in Table 2 and finding their ratio (T70/T50).

B1: Ketose 3-epimerase mutant 29: amino acid-substituted mutant of SEQ ID NO: 1 (protein)
chain: MKIGCHGLVWTGRFDAEGIRYSVQKTKEAGFDLIEFPLMDPFSFDVATAKSALAEYGLTASASLGLSEATDVSSEDPAIVKAGEELLNRALDVLAELGATDFCGVIYSAMKKYMEPATEQGLSNSKAAVGRVVDRAAGLGINVSLEVVNRYETNVLNTGRQALSYLSDVKRPNLGVHLDTYHMNIEESDMFSPVLDTAEALKYVHIGESHRGYLGTGSVDFDNFFKALGRIGYDGPVVFESFSSAVVAPDLSRMLGIWRNLWADNEELGAHANAFIRDKLTAIKTIELH
modifications: Arthrobacter histidinolovorans
As to B1, the “Residual activity (%)” value in data set [1] was 56.8%. Moreover, the T70/T50 in data set [2] is reported as 1.58.

B2: Ketose 3-epimerase mutant 30: amino acid-substituted mutant of SEQ ID NO: 1 (protein)
chain: MKIGCHGLVWTGRFDAEGIRYSVQKTKEAGFDLIEFPLMDPFSFDVATAKSALAEHGLTASASLGLSEATDVSSEDPAIVKAGEELLNRALDVLAELGATDFCGVIYSAMKKYMEPATEQGLSNSKAAVGRVVDRAAGLGINVALEVVNRYETNVLNTGRQALSYLSDVKRPNLGVHLDTYHMNIEESDMFSPVLDTAEALKYVHIGESHRGYLGTGSVDFDNFFKALGRIGYDGPVVFESFSSAVVAPDLSRMLGIWRNLWADNEELGAHANAFIRDKLTAIKTIELH
modifications: Arthrobacter histidinolovorans
Consider B2, for which the “Residual activity (%)” value in data set [1] is on record as 66.9%. Further, in data set [2], the T70/T50 is given as 1.57.

B3: Ketose 3-epimerase mutant 32: amino acid-substituted mutant of SEQ ID NO: 1 (protein)
chain: MKIGCHGLVWTGRFDAEGIRYSVQKTKEAGFDLIEFPLMDPFSFDVATAKSALAEHGLTASASLGLSEATDVSSEDSAIVKAGEELLNRALDVLAELGATDFCGVIYSAMKKYMEPATEQGLSNSKAAVGRVVDRAAGLGINVSLEVVNRYETNVLNTGRQALSYLSDVKRPNLGVHLDTYHMNIEESDMFSPVLDTAEALKYVHIGESHRGYLGTGSVDFDNFFKALGRIGYDGPVVFESFSSAVVAPDLSRMLGIWRNLWADNEELGAHANAFIRDKLTAIKTIELH
modifications: Arthrobacter histidinolovorans
Take B3: in data set [1], the “Residual activity (%)” value turned out to be 39.9%. Further, the T70/T50 in data set [2] is 1.53.

B4: Ketose 3-epimerase mutant 31: amino acid-substituted mutant of SEQ ID NO: 1 (protein)
chain: MKIGCHGLVWTGRFDAEGIRYSVQKTKEAGFDLIEFPLMDPFSFDVATAKSALAEHGLTASASLGLSEATDVSSEDPAIVKAGEELLNRALDVLAELGATDFCGVIYSAMKKYMEPATEQGLSNSKAAVGRVVDRAAGLGINVSLEVVNRYETNVLNTGRQALSYLSDVKRPNLGVHLDTYHMNIEESDMFSPVLDTADALKYVHIGESHRGYLGTGSVDFDNFFKALGRIGYDGPVVFESFSSAVVAPDLSRMLGIWRNLWADNEELGAHANAFIRDKLTAIKTIELH
modifications: Arthrobacter histidinolovorans
Regarding B4, the “Residual activity (%)” value in data set [1] was determined as 58.1%. Moreover, in data set [2], the T70/T50 was 1.54.

B5: Ketose 3-epimerase mutant 33: amino acid-substituted mutant of SEQ ID NO: 1 (protein)
chain: MKIGCHGLVWTGRFDAEGIRYSVQKTKEAGFDLIEFPLMDPFSFDVATAKSALAEHGLSVSASLGLSEATDVSSEDPAIVKAGEELLNRALDVLAELGATEFCGVIYSAMKKYMEPATEQGLSNSKAAVGRVVDRAAGLGINVSLEVVNRYETNVLNTGRQALSYLSDVKRPNLGVHLDTYHMNIEESDMFSPVLDTAEVLKYVHIGESHRGYLGTGNVDFDNFFKALGRIGYDGPVVFESFSSAVVAPDLSRMLGIWRNLWADNEELGAHANAFIRDKLTAIKTIELH
modifications: Arthrobacter histidinolovorans
For B5, the “Residual activity (%)” value in data set [1] was 91.0%. In addition, the T70/T50 in data set [2] amounted to 1.46.

Source of the values: patent publication US20210395718A1, “NOVEL KETOSE 3-EPIMERASE” (NATIONAL UNIVERSITY CORPORATION KAGAWA UNIVERSITY, priority 2018, published 2021).
